The record followed here is article PMC4757811 (Biochemistry, 2015).

Square brackets hold non-standard residues; d marks the D form. Ends that are not written are not given here. pY = N[C@@H](Cc1ccc(OP(=O)(O)O)cc1)C(=O)O

In this assay the target is Brk SH2 domain (UniProt Q13882 78-170). Kind of assay: ITC. (Isothermal titration calorimetry measures the heat released or taken up as one component is titrated into another.)
Chain of Brk SH2 domain (Q13882 78-170): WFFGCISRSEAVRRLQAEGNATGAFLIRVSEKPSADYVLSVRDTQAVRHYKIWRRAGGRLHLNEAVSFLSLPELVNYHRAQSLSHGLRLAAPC

B1: Phosphorylated Brk C-terminal tail peptide, wild type (FTSpYENPTG) (peptide)
peptide: FTS[pY]ENPTG
In general, Kd refers to the constant that tells how readily two partners part at equilibrium. Take B1: the Kd worked out at 15 µM.

B2: Phosphorylated Brk C-terminal tail peptide with the P450L substitution (FTSpYENLTG) (peptide)
peptide: FTS[pY]ENLTG
As for B2, binding was put at a Kd of 53 µM. Against the preceding molecule, the Kd is about 3.5-fold higher.
